This is an account of results in PMC6449345.

Assay [1] addresses S. cerevisiae RNA polymerase II (Pol II), stalled elongation complex on DNA with nascent RNA (S. cerevisiae) (UniProt P16370).
The target is the same in assay [2]. This is another data set of the same source.

UniProt P16370, sequence (P16370 whole entry, looked up, one chain of several): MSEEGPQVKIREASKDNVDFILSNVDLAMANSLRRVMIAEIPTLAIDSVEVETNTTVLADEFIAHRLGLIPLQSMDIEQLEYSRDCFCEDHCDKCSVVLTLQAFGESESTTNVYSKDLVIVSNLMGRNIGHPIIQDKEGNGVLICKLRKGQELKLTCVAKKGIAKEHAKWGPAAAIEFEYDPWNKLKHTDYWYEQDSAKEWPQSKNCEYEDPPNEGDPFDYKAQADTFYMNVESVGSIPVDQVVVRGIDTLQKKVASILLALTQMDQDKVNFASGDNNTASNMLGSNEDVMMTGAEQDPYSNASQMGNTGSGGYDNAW

B1: Sen1 helicase domain (Sen1 HD, 1095–1904) (domain or fragment)
chain: AELAKQELEHMRKRLNVDMNPLYEIILQWDYTRNSEYPDDEPIGNYSDVKDFFNSPADYQKVMKPLLLLESWQGLCSSRDREDYKPFSIIVGNRTAVSDFYDVYASVAKQVIQDCGISESDLIVMAYLPDFRPDKRLSSDDFKKAQHTCLAKVRTLKNTKGGNVDVTLRIHRNHSFSKFLTLRSEIYCVKVMQMTTIEREYSTLEGLEYYDLVGQILQAKPSPPVNVDAAEIETVKKSYKLNTSQAEAIVNSVSKEGFSLIQGPPGTGKTKTILGIIGYFLSTKNASSSNVIKVPLEKNSSNTEQLLKKQKILICAPSNAAVDEICLRLKSGVYDKQGHQFKPQLVRVGRSDVVNVAIKDLTLEELVDKRIGERNYEIRTDPELERKFNNAVTKRRELRGKLDSESGNPESPMSTEDISKLQLKIRELSKIINELGRDRDEMREKNSVNYRNRDLDRRNAQAHILAVSDIICSTLSGSAHDVLATMGIKFDTVIIDEACQCTELSSIIPLRYGGKRCIMVGDPNQLPPTVLSGAASNFKYNQSLFVRMEKNSSPYLLDVQYRMHPSISKFPSSEFYQGRLKDGPGMDILNKRPWHQLEPLAPYKFFDIISGRQEQNAKTMSYTNMEEIRVAIELVDYLFRKFDNKIDFTGKIGIISPYREQMQKMRKEFARYFGGMINKSIDFNTIDGFQGQEKEIILISCVRADDTKSSVGFLKDFRRMNVALTRAKTSIWVLGHQRSLAKSKLWRDLIEDAKDRSCLAYACSGFLDPRNNRAQSILRKFNVPVPSEQEDDYKLPMEYITQGPDEVKSN
In the case of B1, in assay [1], the Km of formation of the intermediate (Sen1·sEC)'; Michaelis-Menten fit of t1, the lifetime before the intermediate forms came to 0.096 nM; the Km of removal of stalled Pol II by Sen1 HD (10-100 pM); Michaelis-Menten fit of the mean total lifetime (t total) of the transcription bubble; magnetic-trap DNA supercoiling assay, 1 mM ATP, 28 °C was 70 pM; the Km of removal of stalled Pol II by Sen1 HD; Michaelis-Menten fit of t total, corrected for the stalling rate ks was determined as 0.083 nM; the Km of removal of stalled Pol II by Sen1 HD; single-molecule Michaelis-Menten global fit of t total distributions (from k1, k-1 and kCAT) is 0.041 nM. In assay [1], the k1, rate of binding of Sen1 HD to the stalled elongation complex; single-molecule Michaelis-Menten global fit of t total distributions, kCAT constrained is 2.18e+09 M⁻¹ s⁻¹ and the k−1, rate of unbinding of Sen1 HD from the stalled elongation complex; single-molecule Michaelis-Menten global fit of t total distributions, kCAT constrained stood at 0.0725 s⁻¹. This molecule also had a k−1, rate of unbinding of Sen1 HD from the stalled elongation complex; the same fit in assay [2] of 0.0719 s⁻¹.
